Laboratory results from the supplement of paper PMC10567573.

B1: TRIM43 (parent)
chain: NNSWIRKNSTMVNSEDIFLLLCLK

Variants of: B1
Experiment: protein stability index of a GFP-peptide fusion (GPS, HEK-293T) (PSI 1-6); higher = more stable
Conditions: c terminus: a fixed tail appended
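Also: lentivirally expressed fusions sorted by FACS into six bins by GFP to DsRed ratio, PSI derived from sequencing read proportions per bin multiplied by bin number.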

Row | Variant | protein stability index
1 | NNSWIRKNSTMVNLEDIFLLLCLK [S14L] | 2.31
2 | NNSWIRKNSTMVNPEDIFLLLCLK [S14P] | 2.1
3 | NNSWIRKNSTMVNYEDIFLLLCLK [S14Y] | 2.89
4 | NNSWIRKNSTMVNAEDIFLLLCLK [S14A] | 3.2
5 | NNSWIRKNSTMVNQEDIFLLLCLK [S14Q] | 3.26
6 | NNSWIRKNSTMVNFEDIFLLLCLK [S14F] | 2.64
7 | NNSWIRKNSTMVNVEDIFLLLCLK [S14V] | 3.6
8 | NNSWIRKNSTMVNDEDIFLLLCLK [S14D] | 2.77
9 | NNSWIRKNSTMVNKEDIFLLLCLK [S14K] | 2.36
10 | NNSWIRKNSTMVNEEDIFLLLCLK [S14E] | 2.08
11 | NNSWIRKNSTMVNREDIFLLLCLK [S14R] | 2.77
12 | NNSWIRKNSTMVNIEDIFLLLCLK [S14I] | 2.62
13 | NNSWIRKNSTMVNCEDIFLLLCLK [S14C] | 2.79
14 | NNSWIRKNSTMVNHEDIFLLLCLK [S14H] | 2.12
15 | NNSWIRKNSTMVNMEDIFLLLCLK [S14M] | 2.13
16 | NNSWIRKNSTMVNNEDIFLLLCLK [S14N] | 2.82
17 | NNSWIRKNSTMVNTEDIFLLLCLK [S14T] | 2.17
18 | NNSWIRKNSTFVNSEDIFLLLCLK [M11F] | 2.54
19 | NNSWIRKNSTLVNSEDIFLLLCLK [M11L] | 3.95
20 | NNSWIRKNSTPVNSEDIFLLLCLK [M11P] | 2.15
21 | NNSWIRKNSTHVNSEDIFLLLCLK [M11H] | 2.44
22 | NNSWIRKNSTWVNSEDIFLLLCLK [M11W] | 2.44
23 | NNSWIRKNSTIVNSEDIFLLLCLK [M11I] | 1.89
24 | NNSWIRKNSTKVNSEDIFLLLCLK [M11K] | 2.38

Row | Variant | protein stability index
25 | NNSWIRKNSTVVNSEDIFLLLCLK [M11V] | 2.69
26 | NNSWIRKNSTSVNSEDIFLLLCLK [M11S] | 2.27
27 | NNSWIRKNSTTVNSEDIFLLLCLK [M11T] | 3.06
28 | NNSWIRKNSTRVNSEDIFLLLCLK [M11R] | 2.69
29 | NNSWIRKNSTNVNSEDIFLLLCLK [M11N] | 1.86
30 | NNSWIRKNSTQVNSEDIFLLLCLK [M11Q] | 3.54
31 | NNSWIRKNSTYVNSEDIFLLLCLK [M11Y] | 2.99
32 | NNSWIRKNSTGVNSEDIFLLLCLK [M11G] | 3.08
33 | NNSWIRKNSTMVNSIDIFLLLCLK [E15I] | 2.72
34 | NNSWIRKNSTMVNSFDIFLLLCLK [E15F] | 2.69
35 | NNSWIRKNSTMVNSSDIFLLLCLK [E15S] | 2.47
36 | NNSWIRKNSTMVNSADIFLLLCLK [E15A] | 3.44
37 | NNSWIRKNSTMVNSTDIFLLLCLK [E15T] | 1.65
38 | NNSWIRKNSTMVNSYDIFLLLCLK [E15Y] | 3.03
39 | NNSWIRKNSTMVNSWDIFLLLCLK [E15W] | 2.01
40 | NNSWIRKNSTMVNSHDIFLLLCLK [E15H] | 2.77
41 | NNSWIRKNSTMVNSGDIFLLLCLK [E15G] | 2.29
42 | NNSWIRKNSTMVNSRDIFLLLCLK [E15R] | 1.25
43 | NNSWIRKNSTMVNSPDIFLLLCLK [E15P] | 1.87
44 | NNSWIRKNSTMVNSLDIFLLLCLK [E15L] | 2.44
45 | NNSWIRKNSTMVNSMDIFLLLCLK [E15M] | 2.26
46 | NNSWIRKNSTMVNSVDIFLLLCLK [E15V] | 3.11
47 | NNSWIRKNSTMVNSQDIFLLLCLK [E15Q] | 4.22
48 | NNSWIRKNSTMVNSCDIFLLLCLK [E15C] | 2.74

Row | Variant | protein stability index
49 | NNSWIRKNSTMVNSNDIFLLLCLK [E15N] | 2.88
50 | NNSWIRKNSTMVNSKDIFLLLCLK [E15K] | 2.89
51 | NNSWIRKNSTMVNSEWIFLLLCLK [D16W] | 3.2
52 | NNSWIRKNSTMVNSEKIFLLLCLK [D16K] | 3.16
53 | NNSWIRKNSTMVNSEVIFLLLCLK [D16V] | 2.92
54 | NNSWIRKNSTMVNSEAIFLLLCLK [D16A] | 1.59
55 | NNSWIRKNSTMVNSEYIFLLLCLK [D16Y] | 2.65
56 | NNSWIRKNSTMVNSESIFLLLCLK [D16S] | 1.7
57 | NNSWIRKNSTMVNSEEIFLLLCLK [D16E] | 3.13
58 | NNSWIRKNSTMVNSECIFLLLCLK [D16C] | 3.95
59 | NNSWIRKNSTMVNSEFIFLLLCLK [D16F] | 2.37
60 | NNSWIRKNSTMVNSEGIFLLLCLK [D16G] | 2.5
61 | NNSWIRKNSTMVNSEIIFLLLCLK [D16I] | 2.17
62 | NNSWIRKNSTMVNSENIFLLLCLK [D16N] | 4.97
63 | NNSWIRKNSTMVNSERIFLLLCLK [D16R] | 2.8
64 | NNSWIRKNSTMVNSEPIFLLLCLK [D16P] | 2.23
65 | NNSWIRKNSTMVNSELIFLLLCLK [D16L] | 2.59
66 | NNSWIRKNSTMVNSEHIFLLLCLK [D16H] | 1.71
67 | NNSWIRKNSTMVNSEMIFLLLCLK [D16M] | 2.45
68 | NNSWIRKNSTMVNSEQIFLLLCLK [D16Q] | 2.49
69 | NNSWIRKNSTMVNSETIFLLLCLK [D16T] | 2.47
70 | NNSWIRKNSTMVVSEDIFLLLCLK [N13V] | 2.72
71 | NNSWIRKNSTMVSSEDIFLLLCLK [N13S] | 2.96
72 | NNSWIRKNSTMVASEDIFLLLCLK [N13A] | 3.6

Row | Variant | protein stability index
73 | NNSWIRKNSTMVESEDIFLLLCLK [N13E] | 2.47
74 | NNSWIRKNSTMVLSEDIFLLLCLK [N13L] | 2.44
75 | NNSWIRKNSTMVQSEDIFLLLCLK [N13Q] | 3.14
76 | NNSWIRKNSTMVTSEDIFLLLCLK [N13T] | 1.95
77 | NNSWIRKNSTMVHSEDIFLLLCLK [N13H] | 3
78 | NNSWIRKNSTMVGSEDIFLLLCLK [N13G] | 3.19
79 | NNSWIRKNSTMVCSEDIFLLLCLK [N13C] | 3.44
80 | NNSWIRKNSTMVFSEDIFLLLCLK [N13F] | 2.69
81 | NNSWIRKNSTMVDSEDIFLLLCLK [N13D] | 3.31
82 | NNSWIRKNSTMVWSEDIFLLLCLK [N13W] | 3.07
83 | NNSWIRKNSTMVYSEDIFLLLCLK [N13Y] | 2.33
84 | NNSWIRKNSTMVRSEDIFLLLCLK [N13R] | 2.39
85 | NNSWIRKNSTMVMSEDIFLLLCLK [N13M] | 3.59
86 | NNSWIRKNSTMVISEDIFLLLCLK [N13I] | 2.37
87 | NNSWIRKNSTMVPSEDIFLLLCLK [N13P] | 2.87
88 | NNSWIRKNSTMVKSEDIFLLLCLK [N13K] | 3.69
89 | NNSWIRKNSTMVNSEDIFLLCCLK [L21C] | 3.87
90 | NNSWIRKNSTMVNSEDIFLLECLK [L21E] | 3.8
91 | NNSWIRKNSTMVNSEDIFLLDCLK [L21D] | 1.92
92 | NNSWIRKNSTMVNSEDIFLLACLK [L21A] | 2.13
93 | NNSWIRKNSTMVNSEDIFLLGCLK [L21G] | 1.83
94 | NNSWIRKNSTMVNSEDIFLLFCLK [L21F] | 1.95
